Experiment [1] addresses gp41 17–163 (construct H; MPER truncated by 9 C-terminal residues) (HIV-1 (HXB2 isolate)). Put plainly: AUC; sedimentation velocity, 50,000 rpm, 20°C; 20 mM sodium phosphate, pH 7, 150 mM NaCl, 10 mM DPC (excess of micelles); 10–20 μM protein.
Experiment [2] concerns the target gp41 17–194 (Env 528 to 705; FPPR to TM, IL replaced by the L6 spacer) (HIV-1 (HXB2 isolate)). Put plainly: AUC; sedimentation velocity, 20°C; 20 mM sodium phosphate, pH 7, without NaCl, DPC; 1–2 μM protein left soluble.

What is called stoichiometry N is a count of units in the complex or per binding partner. Substance “gp41 17–163 (construct H; MPER truncated by 9 C-terminal residues) (domain or fragment)” yielded a stoichiometry N in experiment [1] of 3.
In turn, “gp41 17–194 (Env 528 to 705; FPPR to TM, IL replaced by the L6 spacer) (domain or fragment)” yielded a stoichiometry N in experiment [2] of 3.

These data come from publication PMC4981318.
